Source: PMC10442823

Legend:
[1] = target: His-tagged human FcγRIIIa (V158 allotype), extracellular domain (amino acids 17-208) (human) (UniProt P08637); assay: SPR
[2] = target: His-tagged human FcγRIIIa (V158 allotype), extracellular domain (amino acids 17-208) (human) (UniProt P08637); assay: SPR; Biacore T200; His-tagged FcγRIIIa captured (40 RU) by anti-His antibody on a CM5 chip; Rituxan flowed over, HEPES-EP running buffer; KD from steady state; three independent runs
[3] = target: His-tagged human FcγRIIIa (F158 allotype), extracellular domain (amino acids 17-208) (human) (UniProt P08637); assay: SPR

Substance	Kd [1] [nM]	Kd [2] [nM]	Kd [3] [nM]
mammalian cell produced rituximab (Rituxan)	262	–	–
mammalian cell produced rituximab (Rituxan) (antibody)	–	263	–
rituximab (Rx), plant-produced, co-expressed with LdOST	13	–	50.1
rituximab (Rx), plant-produced, co-expressed with LmSTT3D	12	–	54.4
rituximab (Rx), plant-produced, expressed alone	18	–	66.6
